Measurements from a protein production outcome set (Wang et al. 2014).

Assay: label from the status in PepcDB records

Sequence | protein production
MSNAVSAENEGPGAIPGLLHLSGPCVYVAGSQGVSMTQTMPIGAVIAPVTPLQQNCTIVWCAKTLKAAVIDPGGEVDRLLKAIADKGLTLEKIWITHGHMDHAGGAAELKARTGVPIEGPHKDDQFWIDRIQDSGEMYGMPEARIFVTDRWLDDGDTVTLGETEFEVFHCPGHTPGHVVFFHRETKFAQVGDVLFQGSIGRTDFPMGNHQDLIDSITQKLWPLGEDVRFVPGHGPMSTFGAERRGNPFVGDRVVAAMKAQGAGFTIPKNNSPG | failed
MSNDQSAMNELHWLIDMVQTIEVGLVVLDRDYNIQLWNGFMENHSGVSPNSIKGQNLFSRFPDLPATWLKQKMESVFMLKNRAFISWEQRPYVFQFKNYRPITGRADFMYQNVTLLPLASLTGKITHISVIVYDVTDIAVNKLQLKAANEQLERLSQTDGLTQLHNRRHWQQCLEHEYDLYARYSGIASLVMIDIDHFKNINDTYGHLAGDKVIQHIAHILSHSLRETDCAGRYGGEEFAVVMPSTCGADALNFTERLREKIASSTVVYEGLKIKVTVSLGVCELGKHISSSSSWISCSDKALYEAKQKGRNCTVLHCAPTSAE | failed
MSNEISLCMIVKNEEKYLFQCLDSVKDIVDEIIIVDTGSTDKTVEIAKKFGAEIHYFMWNNSFSDARNESLKYATKDWIFIMDGDDEFSKDDKEKFKELVKNNLKEDCLYYFETLSYCGEFVDSSNISVNLNPRLFKNNYGYKYEGIVHNQLINTEKEIKNVIYNIRIYHYGYLEDVSKKKNKRGRNIPLLKKQLKENPDDRFAHFNIGNEYYAIGDLQKALTHYCEAYKDFNPSSGFGFVLITRLIVTNFGIGKHEKAIEFADIGLEYYPNATDIYFLKALIYEATRRPTLAIKALKRCIEMGEPPSNLKLYYGTWSFKALYELVNIYMGLKDYEEAYKYCIETIKAKNDFVNPVYVIGHILKERKTPIEEFKVELEKLFSDYPKAYFFIANILYDEGYFNEALEYTDKCEKEGLNSDAILDLKLKAMIRAQKFNECAEANYFAKESVFYFNASMYKVLSLVLIGKFKEALKDLEIFKDGKLKRQDKKELEVYSQFVKLFMNEETKVLSEDKEDKEYTGFILDICDILLSNKLYDEFEKALNLFNLISDENVLLNLSKLYYKHGIESMAKKEAIRSIKEFEVFDNEILDILR | failed
MSNELLMSSAEYPAHQENKRFRGASSQNITVILPACNNEVSIGSLILLTRLYADNVIVVDDGSTDRTVEISRKAGAHVIVNEACKGKVGSLRTGFTAAADLGADIIVTMDPDGQHNPAEIPRIVAPIIDGTAEMVNGSRYLNYPGKNSSVYSRTGQTMQDISANMNFNLKITDTQSGFRAYAASTKSIFRFSGKKTAIENEMLADAGRSGIRIAEVEIGACTSVGASIRDPVKYTLGALRTMAEDIEANKPLYFYSVPGFALATCGFFMGFKFMADYFFGIASLNFGHTFLMVFLALAGAYMTLRGIIAHSMAGAARQTDST | failed
MSNESETDVDEETADEEEQAEGLQKGDVVKLAYTARTVDGGQLVDTTDEEVAEDDGIDTEQQEFGPRTIVLGENHIFPDVEQDIYGKEVGDEGDVTVAAADAFGEYDEEEVRTVSKDKIPEDDRYPGAHVDLEGEHGHVETIIGGRARVDFNHPLAGEDVEYDYEVLEEVTDREEKAQGIIQMMLDMELDVWFETDTVEEEQLVESEDEDEDEESEPEYETVEVEKETLYIEATPQLTMNQQWMMGKQQIAQQLTQLLDIDRIIVQEEIGGGGMGMPGMMGGMGGAGGADIEDALEDADVDAEEIVEEIEGAEE | failed
MSNFFKQTLASLLGTLLGLFLFAGAGTTGLLLLLFAAASSSNTGPVVKDKSVVVFDLSMNITDREPSAGEELQNRFSGVTQERMTLRNVIDSLEKAQRDKRIVAIYLDGSRGGNNLGFASLKEIRKALEEFRKSGKKVIAYGVAWDEKEYYLSSVADTIALNPLGGLEINGLSSQPMFLAGALQKYGIGVQVVRAGKFKGAVEPFLLDKLSPENREQTQKLLDDVWGEWRTTVGNSRKINPQKLQAIADNQSLLEATEAKTNGLVDQVAYNDQVVADLKKLTGSNKKDNTFTQISLRRYAQVPGQSLGLEKNSKNKIAVVYAEGDIVDGKGDDGQIGGDRFARIFNKIRQDENVKAVVLRINSPGGSATASEVMQREIRLTRESKPVVVSMGDYAASGGYWIATDSNRIFAEPNTITGSIGVFGVLFNGQKLANDNGITWDAVKTARYADSQTVARPKSPQEIAIYQRSVDRIYNMFVNKVAQGRKLPTQKVAEIAQGRVWSGVTAKQIGLVDEIGGLNAAIEYAAKAAKLGKDWQLREYPRESSFEERFFGGVVEEISTTLGIKKLDVKPNDPLTVQIQKIQQEISILQTMNDPQGVYARLPINLKIE | failed
MSNIIVLSGSPRKGGNTDLLVDAFVKGAEKSNNVEVVSVAYYKVNPCIGCNSCFDRAGHECFQQDDMQIVYDKLKCADVIVVASPVYFYGVSAQLKAIIDRLHTPMRNDFKVKKLALILVGAAVLPELFDSIKIQYQLVLNFFKLEDAGMVLVRGAKDKGDVRNTDGLDEAYRLGLAME | failed
MSNKRKLWQIFGPVLCAFILLIILFLIPWQNGEKSDNALFKASVSQSQTVFKGQSIKQAAFEKNYVPFYGSSELSRMDALHPSVLAYKYKRNYRPFLLGGPGSQSLTHFFTMQETVNQLSNKKAVFIISPQWFTKQGQNPAAFGMYFSQLQAVDWILTAKDSVATRYAARRLLDMPAGTASETTKYALMTLASGQKLSKYQTLYLKARRRMLANEDNFFSSIGMTNNIPKIQKEAGKLPGTYAYDNLRQFANEQGQQGTTNNKFGISNGFFDKKLNNKHLKHLKNSQRDFDYTQSPEYADFELVLNELAHEHVNVLFIIPPVNEKWAKYTGLSQTMYQECVAKITKQLTSQGFNNIANLSKDGGKKFFMEDTIHLGWNGWLKVDQYVKPFMEEKNHPVNYKLNSYYFTKAWGNKTNVKMPNVKSKAAVDIKKN | failed
MSNRIKNIHYGTQRQQLKNLTKKEYQALREMCFLAKNLYNVGTYNVRQHYFNQGEHLNYEANYHVCKENENYKLLNSNIAQQILKEVDSSFRSFFGLIKLAKEGKYDFRGIKSPKYLDKEGFFSIIIGQIRIKEDGILNVPMSPAFKKLYGKVSIKVPQNILEKKIKEIRIIPKHKARFFEIQYCYEIPKSEEVSNQKNALAIDLGLENLCTCVTNLGDSFIIDGKRLKSVNQWANKQNDKIEALKLKKNITAITRKQFKVWNKRNNQVKDYVNKTCFYIIDYCVKNNIGNLIVGYNAKLEKSDNMERKIYRNFIRIPFGEIKGKLEYLCKIKNINFIRQEESYTSKSDFFADDFLPDINVDNVKKYDFKGERITRGQYKSSVGIIINADVNASLNILKKSQVVNLSNLQNNPQILKQPQRVRIS | failed
MSNSSMSVVILAAGKGTRMYSDLPKVLHPLAGKPMVQHVIDAAMKLGAQHVHLVYGHGGELLKKTLADPSLNWVLQAEQLGTGHAMQQAAPHFADDEDILMLYGDVPLISVDTLQRLLAAKPEGGIGLLTVKLDNPSGYGRIVRENGDVVGIVEHKDASDAQREINEINTGILVANGRDLKRWLSLLDNNNAQGEFYITDIIALAHADGKKIATVHPTRLSEVEGVNNRLQLSALERVFQTEQAEKLLLAGVMLLDPSRFDLRGELTHGRDITIDTNVIIEGHVILGDRVRIGTGCVLKNCVIGDDSEISPYTVLEDARLDANCTVGPFARLRPGAELAEGAHVGNFVEIKKARLGKGSKAGHLSYLGDAEIGAGVNIGAGTITCNYDGANKFKTIIGDDVFVGSDTQLVAPVTVANGATIGAGTTVTRDVAENELVISRVKQVHIQGWKRPVKKK | not failed
MSNVLIINAMKEFAHSKGALNLTLTNVAADFLRESGHQVKITTVDQGYDIESEIENYLWADTIIYQMPAWWMGEPWILKKYIDEVFTDGHGRLYQSDGRTRSDATKGYGSGGLIQGKTYMLSVTWNAPREAFTDPEQFFHGVGVDGVYLPFHKANQFLGMKPLPTFMCNDVIKQPDIEGDIARYRQHLAENVNS | not failed
MSNVRVLATDLAFPEGPVVMPDGSVVLVEIRAQQLTRVWPDGRKEVVAKVPGGPNGAALGPDGKMYICNNGGFGWFPSRGTMMPGAPAPHEYIGGSIQRVDLQSGEVETLFDKCGEHPLKGPNDLVFDKHGGLWFTDLGKRRARDMDVGAAYYIKPGMTEITEQVFGTLPLNGIGLSPDEATMYAAETPTGRLWAFDLSGPGEVKPRDVIYRGEKGKPICGLGGYQMFDSLAVEASGNVCVATLVSGCISVIAPDGTLVEQVPTGDRVTTNIAFGGPDLKTAYITLSGKGELIAMDWSRPGLPLNFLNKLEHHHHHH | failed
MSNWPYPRIVAHRGGGKLAPENTLAAIDVGAKYGHKMIEFDAKLSKDGEIFLLHDDNLERTSNGWGVAGELNWQDLLRVDAGSWYSKAFKGEPLPLLSQVAERCREHGMMANIEIKPTTGTGPLTGKMVALAARQLWAGMTPPLLSSFEIDALEAAQQAAPELPRGLLLDEWRDDWRELTARLGCVSIHLNHKLLDKARVMQLKDAGLRILVYTVNKPQHAAELLRWGVDCICTDAIDVIGPNFTAQ | not failed
MSPAIITLLILVVAIIIFISDRLPMGLVAFMVPMALYFFGVIGVKDIFASIVNENVILIIAMCVLGAAFFKTGLAWQSSKILLKYAKTERSLSVLIFMISGVMSAFVSNSGTVAVLIPIVLGIAGTSQIKPIKLLMPLVFGATIGADISIIGSPGNLIAKNTIETFSKGNLSVPFFEYAKIGIPLMIACALLLFFFGSRLIPDRDGHEQSDVQMDYSHIPEWHKLLTLIVFVLAILGMVATDYVKFLPPIHIIACCAAIVLVLTGVLNQKETFNSFETLTVFMLAFMMPLGAALNSTGAGEMIARAVISVTGNSGVIVIMASLWILTWALTQVMSNTAACTLLCPVGWTIAQSIGADPRAVVIAIFIASSVAVCTPMAIPANSMIIGPGNVKFKDFLKPGLAISFVCFIVSMILLPVFYPFY | failed
MSPFLRIGLSNFDCGSCQSCQGEAVNPYCAVLVKEYVESENGQMYIQKKPTMYPPWDSTFDAHINKGRVMQIIVKGKNVDLISETTVELYSLAERCRKNNGKTEIWLELKPQGRMLMNARYFLEMSDTKDMNEFETEGFFALHQRRGAIKQAKVHHVKCHEFTATFFPQPTFCSVCHEFVWGLNKQGYQCRQCNAAIHKKCIDKVIAKCTGSAINSRETMFHKERFKIDMP | failed
MSPIARAALWMTGAIASFSAMAVAGRELSAVHDTFEIMMYRSFVGVLVVSLILSVTGTWHQVSTRALGLHALRNAVHFTGQNLWFFAVTVIPLAQVFALEFTQPLWVILLSPLLLGERMTRVRVAAAVIGFVGILIVARPGASSLNIGILTAALSAIFFAMTTISTKKLTRLASIGCIMFWLTVMQAVLGLVASGHDGQIALPTLGTAPYLVLVGLAGLLAHYCITNALAIAPATVVVPIDFARLPTIAVVGMLLYGEALDIWVLVGAAVIFAGNYLNILAETRNTAR | failed
MSPIEKSSKLENVCYDIRGPVLKEAKRLEEEGNKVLKLNIGNPAPFGFDAPDEILVDVIRNLPTAQGYCDSKGLYSARKAIMQHYQARGMRDVTVEDIYIGNGVSELIVQAMQALLNSGDEMLVPAPDYPLWTAAVSLSSGKAVHYLCDESSDWFPDLDDIRAKITPRTRGIVIINPNNPTGAVYSKELLMEIVEIARQHNLIIFADEIYDKILYDDAEHHSIAPLAPDLLTITFNGLSKTYRVAGFRQGWMVLNGPKKHAKGYIEGLEMLASMRLCANVPAQHAIQTALGGYQSISEFITPGGRLYEQRNRAWELINDIPGVSCVKPRGALYMFPKIDAKRFNIHDDQKMVLDFLLQEKVLLVQGTAFNWPWPDHFRIVTLPRVDDIELSLSKFARFLSGYHQL | failed
